Assay results: US20250155401, “RAPID, SINGLE-STEP AND REAGENTLESS ELECTROCHEMICAL BIOSENSING METHODS, COMPOSITIONS AND DEVICES FOR NANOMOLAR DETECTION OF C-REACTIVE PROTEIN” (Advanced Biomedical Instrumentation Centre Limited, published 2025)

Tests used:
[1] = target: T1, C-reactive protein (CRP) (UniProt P02741 P02741:19-224); test: square wave voltammetry on gold SPE, Hill-Langmuir fit of 48-hour sensor re-use data; BSA-doped PBS with Mg, room temperature not stated; conditions: tags: abcam ab167710, HEK 293 expressed, >95% purity; chain copies: 5 (pentamer, stated); label: 3' methylene blue
T1 sequence: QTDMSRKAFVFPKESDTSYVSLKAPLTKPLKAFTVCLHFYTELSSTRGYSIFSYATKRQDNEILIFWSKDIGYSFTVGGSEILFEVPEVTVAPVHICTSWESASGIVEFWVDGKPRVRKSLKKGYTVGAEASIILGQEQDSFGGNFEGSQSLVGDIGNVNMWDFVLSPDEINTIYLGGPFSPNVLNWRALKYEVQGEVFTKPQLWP
Protocol: Refer to FIGS. 4A-4D for the following descriptions. To assess reusability of the prepared aptasensors, dose-response assays are conducted in BSA doped PBS buffer 48 hours after initial testing. Magnesium is used to supplement PBS buffer to more closely match the ion content found in serum with observations showing little difference between results obtained from the initial screening assay. […] Despite these uncertainties, linear range observed for used sensors is broadly maintained. For used sensors, the LOD calculated from linear regression is shown to be approximately 363 pM which matched well with an LOD value of approx. 374 pM derived from non-linear regression fits to the Hill-Langmuir (dose response) function described in section 2.6. Non-Linear fitting is achieved with good fitting (adjusted R₂=0.99). […] Here, concentration is provided in molar units, calculated using the CRP pentameric isoform weight of 120 kDa.

[2] = target: bovine serum albumin (BSA) (Bos taurus, UniProt P02769 P02769:25-607); test: square wave voltammetry; no observable deviation in response, PBS; conditions: tags: Sigma-Aldrich, lyophilized powder >96%; label: 3' methylene blue
Sequence of bovine serum albumin (BSA) (P02769 25-607, one chain of several): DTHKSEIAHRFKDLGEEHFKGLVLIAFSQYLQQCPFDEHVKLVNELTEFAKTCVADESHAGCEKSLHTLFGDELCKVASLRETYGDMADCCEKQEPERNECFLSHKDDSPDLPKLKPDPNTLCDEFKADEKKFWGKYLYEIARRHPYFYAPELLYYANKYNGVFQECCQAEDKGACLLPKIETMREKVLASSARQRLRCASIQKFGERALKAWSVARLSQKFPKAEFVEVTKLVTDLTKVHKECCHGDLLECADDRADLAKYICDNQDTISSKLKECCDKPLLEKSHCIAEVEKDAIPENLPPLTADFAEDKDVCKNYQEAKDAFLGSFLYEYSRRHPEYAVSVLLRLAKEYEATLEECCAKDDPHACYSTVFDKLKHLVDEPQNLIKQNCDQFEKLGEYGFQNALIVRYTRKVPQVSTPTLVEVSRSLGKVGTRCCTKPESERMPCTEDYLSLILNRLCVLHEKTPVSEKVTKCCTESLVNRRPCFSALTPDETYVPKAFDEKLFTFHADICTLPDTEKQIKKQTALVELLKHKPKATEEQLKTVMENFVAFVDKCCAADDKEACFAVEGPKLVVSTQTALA
Protocol: (§1) The initial response spike is caused by injection of the analyte. Subsequent stabilisation of the response signal via this testing method occurs over 2-3 minutes. Crucially, significant concentrations of bovine serum albumin, and human serum albumin produce no observable deviation in response, confirming excellent selectivity against serum endogenous proteins that are well known to produce false positives in other sensors formats.

[3] = target: human serum albumin (HSA) (Homo sapiens, UniProt P02768 P02768:25-609); test: as above; conditions: label: 3' methylene blue
Sequence of human serum albumin (HSA) (P02768 25-609, one chain of several): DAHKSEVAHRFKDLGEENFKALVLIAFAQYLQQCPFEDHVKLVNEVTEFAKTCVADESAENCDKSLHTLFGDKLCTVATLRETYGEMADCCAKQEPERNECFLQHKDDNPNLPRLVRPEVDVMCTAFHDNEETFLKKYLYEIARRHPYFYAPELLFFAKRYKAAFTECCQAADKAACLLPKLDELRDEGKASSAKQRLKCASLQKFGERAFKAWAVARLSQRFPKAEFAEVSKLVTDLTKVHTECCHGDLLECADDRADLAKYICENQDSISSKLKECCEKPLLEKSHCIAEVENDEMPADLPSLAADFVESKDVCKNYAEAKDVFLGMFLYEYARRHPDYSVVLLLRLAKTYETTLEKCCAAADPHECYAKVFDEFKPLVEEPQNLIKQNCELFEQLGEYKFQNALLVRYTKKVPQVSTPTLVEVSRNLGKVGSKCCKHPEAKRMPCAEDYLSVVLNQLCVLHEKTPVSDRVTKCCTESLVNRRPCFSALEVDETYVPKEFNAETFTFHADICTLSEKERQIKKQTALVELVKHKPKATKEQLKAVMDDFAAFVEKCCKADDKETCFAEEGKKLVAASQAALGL
Protocol: as §1

[4] = target: T1, C-reactive protein (CRP); test: square wave voltammetry; no response up to 500 nM CRP in PBS with 1 mM BSA; conditions: tags: abcam ab167710, HEK 293 expressed, >95% purity; chain copies: 5 (pentamer, stated); label: 3' methylene blue
Protocol: Refer to FIGS. 3A-3E for the following descriptions. To assess specificity of the CRP-targeting aptamer, initial assays are conducted in PBS (1×) buffer supplemented with bovine serum albumin ‘BSA’. Albumin is fixed at a concentration of 1 mM to reflect slightly higher concentrations than those found in serum. Control sensors are prepared in the same fashion as with test sensors using an excised version of the CRP-targeting aptamer sequence without flanking primer regions (FIG. 3D). […] A Limit of detection ‘LOD’ of 105.4 pM is calculated using linear regression, using n=3 independently prepared sensors. […] Here, CRP concentration is reported in molar units and calculate values based on the pentameric isoform weight of 115-120 kDa, as is reported by the commercial supplier and elsewhere.

B1: CRP-targeting aptamer (ssDNA)
DNA: GGCAGGAAGACAAACACGATGGGGGGGTATGATTTGATGTGGTTGTTGCATGATCGTGGTCTGTGGTGCTGT
modifications: 5' thiol modifier (C6-S-S), 3' methylene blue via C7 spacer
[1]
  Kd: 55.4 nM
[2]
  binding result: no binding
[3]
  binding result: no binding

## CGATGGGGGGGTATGATTTGATGTGGTTGTTGCATGATCG (ssDNA, 5' thiol modifier (C6-S-S), 3' methylene blue via C7 spacer) [CRP-targeting aptamer without flanking primer regions (control)]
[4]
  binding result: no binding
